Residue numbers refer to the chain shown, from its start. Names may count otherwise. Each block holds one binder with its values, some of them ahead of it.
How the values were obtained:
human IL-23R [1] = molecular target: T1, human IL-23R (human, UniProt Q5VWK5 24-353, limits assumed); assay: KinExA
T1 construct: also called huIL-23R; human interleukin-23R
T1 sequence: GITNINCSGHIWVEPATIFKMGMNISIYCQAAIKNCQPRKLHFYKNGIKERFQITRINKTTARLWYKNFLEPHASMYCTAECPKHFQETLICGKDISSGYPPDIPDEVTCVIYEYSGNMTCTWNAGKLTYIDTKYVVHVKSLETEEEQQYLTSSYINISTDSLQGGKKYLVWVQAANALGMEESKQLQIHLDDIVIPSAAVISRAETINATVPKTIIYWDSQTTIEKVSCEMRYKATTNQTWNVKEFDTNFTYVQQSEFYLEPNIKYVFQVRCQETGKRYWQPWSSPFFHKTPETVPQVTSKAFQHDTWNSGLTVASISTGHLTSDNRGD
Procedure: (§1) The equilibrium dissociation constants (Kd) for anti human IL-23R antibodies are determined using the KinExA. 3000 instrument. Sapidyne Instruments Inc., Boise Id., USA. KinExA uses the principle of the Kinetic Exclusion Assay method based on measuring the concentration of uncomplexed antibody in a mixture of antibody, antigen and antibody-antigen complex. The concentration of free antibody is measured by exposing the mixture to a solid-phase immobilized antigen for a very brief period of time. In practice, this is accomplished by flowing the solution phase antigen-antibody mixture past antigen-coated particles trapped in a flow cell. Data generated by the instrument are analyzed using custom software. Equilibrium constants are calculated using a mathematical theory based on the lowing assumptions: [0177] 1. The binding follows the reversible binding equation for equilibrium: […]
PMMA particles (Sapidyne, Cat No. 440198) are coated with biotinylated IL-23R (or a fragment thereof, such as the extracellular domain) according to Sapidyne “Protocol for coating PMMA particles with biotinylated ligands having short or nonexistent linker arms.” EZ-link TFP PEO-biotin (Pierce, Cat. No. 21219) is used to make biotinylated IL-23R, as per the manufacturer's recommendations (Pierce bulletin 0874).

human IL-23R [2] = molecular target: T1, human IL-23R; assay: BIAcore SPR, antibody immobilised
Procedure: (§2) BIAcore® label-free interaction analysis system determinations are performed essentially as described at Example 4 of U.S. Patent Application Publication No. 2007/0048315, which is hereby incorporated by reference. Briefly, ligands (anti-IL-23R mAbs) are immobilized on a BIAcore® label-free interaction analysis system CM5 sensor chip using standard amine-coupling procedure. Kinetic constants for the various interactions are determined using BIAevaluation software 3.1. The Kd is determined using the calculated dissociation and association rate constants.

human IL-23R [3] = molecular target: T1, human IL-23R; assay: BIAcore SPR, antibody immobilised; remark: listed apart in the source
Procedure: as §2
Several sequence variants intended to increase the chemical stability of hu8B10-b were produced to evaluate their effects on binding affinity. Kd values are provided at Table 3. Binding to human IL-23R was determined using the BIAcore® label-free interaction analysis system (surface plasmon resonance), essentially as described in Example 4 (supra). Chimeric forms, designated as “chim,” refers to rat variable domains linked to human IgG1 heavy chain and human kappa light chain constant domains, e.g., as presented at SEQ ID NOs: 16 and 17, respectively, or as at SEQ ID NOs: 22 and 23, respectively. Sequences for heavy and light chain variable domains are provided at FIGS. 1 and 2, and in the Sequence Listing (as described at Table 4). Antibodies incorporate the sequence changes recited in the table (“Variant(s)”) for the respective heavy and light chains. Data arc presented as mean±standard deviation for multiple determinations, and without error estimates for single determinations.

human IL-23R [4] = molecular target: T1, human IL-23R; assay: KinExA, full-length chimeric antibody; original sequence (no N31T)
Procedure: as §1
(§3) PMMA particles (Sapidyne, Cat No. 440198) are coated with biotinylated IL-23R (or a fragment thereof, such as the extracellular domain) according to Sapidyne “Protocol for coating PMMA particles with biotinylated ligands having short or nonexistent linker arms.” EZ-link TFP PEO-biotin (Pierce, Cat. No. 21219) is used to make biotinylated IL-23R, as per the manufacturer's recommendations (Pierce bulletin 0874). […]

human IL-23R [5] = molecular target: T1, human IL-23R; assay: KinExA, full-length chimeric antibody
Procedure: as §1, §3

human IL-23R [6] = molecular target: T1, human IL-23R; assay: KinExA, full-length chimeric antibody; N31T variant, full-length chimeric
Procedure: as §1, §3

Kd (human IL-23R [1]): 0.042 nM
Kd (human IL-23R [2]): ~0.3 nM
Kd (human IL-23R [3]): 0.27 nM
B1: rat anti-human IL-23R antibody 8B10 (antibody, rat IgG2a, V domains shown)
VH: EVKLVESGGGLEQPKGSLKLSCTVSGFDFNSYGMSWVRQAPGKGLDLVADINSKSYNYATYYADSVKDRFTISRDDSQSMVYLEMDNLKTEDTALYYCTVHHSDYFEYWGQGVMVTVSS
VL: DIQMTQSPASLSASLGETVSIECLASEDIYNNLAWYQQKPGKSPQLLIYHASSLQDGVPSRFSGSGSGTQYSLKINSLESEDAATYFCLQDSEYPPTFGGGTKLELKR
notes: also called r8B10

Kd (human IL-23R [3]): 0.345 nM
Kd (human IL-23R [4]): 0.025 nM
B2: chimeric 8B10 full-length antibody (antibody, V domains shown)
VH: B1 VH
VL: B1 VL
notes: also called chim8B10

fold improvement in binding affinity against the original sequence (human IL-23R [5]): 3 fold
Kd (human IL-23R [6]): 0.008 nM
B3: full-length chimeric 8B10 antibody, VL N31T (antibody, V domains shown)
VH: B1 VH
VL: B1 VL with N31T
notes: also called N31T variant

— patent publication US20110158992A1 (SCHERING, published 2011)
